This is an account of results in patent US20240324599A1, “PESTICIDAL ENZYMES FOR USE ON NEMATODES, INSECTS, AND MOLLUSKS” (priority 2023, published 2024).

Assay [1] concerns SCN nematodes. The experiment in a line: Foliar spray on strawberry leaf segments: nematode death. It counts as in vivo, Heterodera glycines. The settings on record: Table 40, 0.6% spray solution on strawberry leaf segments. The procedure:
To determine whether a nematicidal enzyme can cause nematode death when sprayed as a foliar treatment, a trial was performed using chitinase 19F (SEQ ID NO: 182). The free enzyme was produced as described in Example 2. A SCN hatchery was set up as described in Example 2, except that no bleach sterilization step was performed. Six days later, the concentration of hatched nematodes was determined. Leaves from Quinault strawberry plants (Fragaria× ananassa) were cut into square sections and placed in the wells of a 24-well plate with the abaxial side up. Twenty-four wells were set up for each treatment. Spray solutions were created with water alone and water plus fermentation broth with chitinase 19F (SEQ ID NO: 182). For the base strain control and chitinase solutions, 0.094 mL of fermentation broth was added to 15 mL of water (0.6% solution) to model a field spray application of 8 fl oz. per acre. Treatments were added to a small spray bottle and each leaf segment was sprayed approximately 3 times. After the leaves had dried, approximately 100 nematodes were added to each leaf segment. […] The number of alive and dead nematodes were counted for each well, and the average percentage of dead nematodes were calculated for each treatment. […]

In assay [2] the test system is Btk resistant Diamondback moth. Kind of assay: Diet-surface overlay (DSO) bioassay. It counts as in vivo. The settings on record: Table 47, Btk resistant. The method in brief:
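Enzyme treatments (0.1 mL) were applied over the surface of antibiotic-free artificial diet, with one first-instar larva per cell and 16 or 32 larvae per treatment. After 7 days at 27° C under a 16:8 light-dark cycle, larvae were scored as dead, larval stage, pupa or adult. Water served as the negative control and 1000 ppm Btk spores as the positive control.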

Assay [3] deals with soybean cyst nematode (SCN). Kind of assay: Soil application around soybean plants: SCN cysts per gram of root tissue. It counts as in vivo, Heterodera glycines. The settings on record: Table 34; for Average cysts per g of root tissue: 0.5 mL/plant to soil, soybean 2830E3, 3 weeks, water control 139.8; for % Comparison to Control: water control = 100%, change in brackets. The procedure:
To determine the efficacy of nematicidal enzymes applied to soil, a controlled environment trial was performed with 7-day old soybean plants (variety 2830E3) grown in pots. Enzymes were produced as described in Example 2. Prior to inoculation, 0.5 mL of neutral protease (SEQ ID NO: 127), esterase B (SEQ ID NO: 89), or chitinase 19F (SEQ ID NO: 182) free enzyme solution was applied to the soil around the base of each plant, or 0.5 mL of water was applied for the control (30 plants per treatment). Then, hatched SCN juveniles were applied to the soil around each plant as described in Example 2, and three weeks later, cysts per gram of root tissue was determined as described in Example 2. The data was analyzed as in Example 2 and appears in Tables 33 and 34.
To determine the efficacy of recombinant strains applied to soil, a controlled environment trial was performed as described in Example 18 above (Reduction of soybean cyst nematode reproduction by enzymes applied to soil), with the exception that a recombinant strain expressing neutral protease (SEQ ID NO: 127) was applied instead of a free enzyme solution. The recombinant strain was produced as in Example 3, and the treatment applied to soil as a whole cell broth.

In assay [4] the test system is Fall armyworm (Spodoptera frugiperda). Kind of assay: Diet-surface overlay (DSO) bioassay. It counts as in vivo. The settings on record: for Larva Stage I / Larva Stage II / Larva Stage III / Larva Stage IV / Dead Larva: number of individuals. In outline: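 Enzyme treatments (0.1 mL) were spread and dried on artificial diet (no antibiotics), then one first-instar larva was placed per cell, 16 or 32 larvae per treatment. Trays were held at 27° C., 16:8 h light-dark, and developmental categories were counted after 7 days. Controls were filtered water and Btk spores at 1000 ppm.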

The test system of assay [5] is Diamondback moth (Plutella xylostella). Kind of assay: Diet-surface overlay (DSO) bioassay. It counts as in vivo. The procedure: Diet-surface overlay bioassays are conducted with artificial diet mixes without antibiotics in 1.5 cm^2 cell bioassay trays(s). Artificial diets are commercially available from Southland Products Inc. Diets were prepared by dispersing 0.5 mL of molten diet to each 1.5 cm^2 cell. After solidification, 0.1 mL enzyme treatments were dispersed on top of diet in each cell and the tray was gently rocked in an orbital shaker to spread the liquid uniformly over the diet surface. Trays were placed under clean airflow until the surface of each cell was uniformly dried. One or two 16-cell sections were used per treatment (the number in larvae treated was 16 or 32).
One healthy first instar larva was placed into each treatment cell, each 16-cell section was covered with a re-sealable lid and incubated at 27° C. and light-dark period of 16:8 hrs. After 7 days, and according to the species, the number of individuals in the following developmental categories was recorded.
Diamondback moth (Plutella xylostella): Dead Larva (lack of movement), Larva Stage I (≤50% relative size), Larva Stage II (100% relative size, full size), Early Pupa (light green color), Late Pupa (light-dark brown color), and Adult.
Negative/untreated controls were treated with filtered water and positive controls were treated with lethal doses of Bacillus thuringiensis subsp. Kurstaki (Btk) spores at 1000 ppm.

[6] abbreviates: Table 49, esterases, number of individuals, n = 32.

B1: Streptomyces coelicolor Chitinase F (Chi19F) (protein)
chain: ASCSSYHAWSADANYNTGDIVRYTDGKAYIAEHANPGYDPLISTWYWDPYACDGGSQTPVGNFVVSEAQFNQMFPGRNSFYTYSGLTAALSAYPGFANTGSDTTKKQEAAAFLANVSHETGGLVYIVEQNTANYPHYCDWNQPYGCPAGQAAYYGRGPIQLSWNFNYKAAGDALGIDLLGNPWLVQNDAAVAWKTGLWYWNTQSGPGTMTPHNAMVNGAGFGQTIRSINGSLECDGKNPAQVQSRVTKYQQFAQILGVSPGGNLYC
modifications: Chitinase F (Chi19F); Streptomyces coelicolor
Turning to B1, the “Average percentage of dead nematodes at 0 hours” value in assay [1] (water only 4%) was 3%. Moreover, in assay [1] (water only 5%), the “Average percentage of dead nematodes at 24 hours” value is recorded as 12%. The “Dead Larva” value in assay [2] (individuals of n = 32 after 7 days, mU/mL diet: SEQ 182 3.7, SEQ 185 0.6, water 1) was found to be 2. For the same molecule, in assay [2] (n = 32, doses as E97, water 0), the “Early Pupa” value was found to be 4, the “Larva Stage I” value amounted to 2 and the “Larva Stage II” value was 1. In assay [2] (n = 32, doses as E97, water 7), this molecule registered an Adult of 1. Besides, in assay [2] (n = 32, doses as E97, water 24), the “Late Pupa” value was 22. Besides, in assay [3], the “Average cysts per g of root tissue” value is given as 95.6 cysts per g of root tissue and the “% Comparison to Control” value is given as 68% (−32%). Besides, in assay [4] (Table 48, chitinases, n = 32), the “Larva Stage I” value came to 4, the “Larva Stage II” value turned out to be 14, the “Larva Stage III” value is on record as 5 and the “Larva Stage IV” value was determined as 6. The “Dead Larva” value in assay [4] (Table 48, chitinases, n = 32, dose per treatment in mU/mL Diet) was 3.

B2: Bacillus subtilis Esterase (EstB without signal sequence) (protein, listed as Bacillus subtilis)
chain: ESVHNPVVLVHGISGASYNFFAIKNYLISQGWQSNKLYAIDFYDKTGNNLNNGPQLASYVDRVLKETGAKKVDIVAHSMGGANTLYYIKYLGGGNKIQNVVTLGGANGLVSSTALPGTDPNQKILYTSIYSLNDQIVINSLSRLQGARNIQLYGIGHIGLLSNSQVNGYIKEGLNGGGLNTN
modifications: Esterase (EstB H191 without signal sequence)
Consider B2, for which, in assay [5] (setting [6]), the Adult is 0, the “Early Pupa” value is given as 4, the “Larva Stage I” value is 3 and the “Larva Stage II” value came to 8. The “Late Pupa” value in assay [5] (setting [6]) is given as 17. For the same molecule, in assay [5] (Table 49, esterases, number of individuals, n = 32, dose per treatment in U/mL Diet), the “Dead Larva” value is given as 0. In assay [5] (text to Table 49), the “individuals at larva stage” value is listed as 34% and the “individuals with delayed larva-pupa development” value was 47%. Moreover, in assay [3], the “Average cysts per g of root tissue” value was 117.3 cysts per g of root tissue and the “% Comparison to Control” value is recorded as 84% (−16%). Besides, in assay [4] (Table 50, esterases, n=32), the “Larva Stage I” value is given as 3, the “Larva Stage II” value is 4, the “Larva Stage III” value stood at 14 and the “Larva Stage IV” value is reported as 10. The “Dead Larva” value in assay [4] (Table 50, esterases, n=32, dose per treatment in U/mL Diet) was found to be 1. In addition, the “individuals with delayed development” value in assay [4] (text to Table 50) is 67%.
